Assay results reported in the supplement of paper PMC9170038.

System: MS2 coat protein
Experiment: apparent KD of MS2 coat protein; designed switch direction (-1 OFF switch, 1 ON switch): 1; higher = weaker reporter binding
In short: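 Each step of the titration lasted 0.8–1.5 h at the lowest concentration and 10–20 min at the highest. The protein, SNAP-549-labelled MS2 coat protein, went from 0.7 or 1.5 nM doubling to 3 µM over RNA switches transcribed on Illumina chips by stalled E. coli RNA polymerase. Normalised cluster fluorescence was curve-fitted, and the per-design median over clusters is given as apparent KD.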

[1] = input ligand: microRNA oligo, concentration not stated
[2] = Eterna round: R95, input ligand: FMN 200 uM
[3] = Eterna round: R95, input ligand: microRNA oligo, concentration not stated
[4] = Eterna round: R95, input ligand: none

Row | Sequence | apparent KD of MS2 coat protein (input ligand: FMN 200 uM) [nM] | apparent KD of MS2 coat protein [1] [nM] | apparent KD of MS2 coat protein (input ligand: none) [nM] | apparent KD of MS2 coat protein [2] [nM] | apparent KD of MS2 coat protein [3] [nM] | apparent KD of MS2 coat protein [4] [nM]
1 | AUUUUGAAUGCAGGAUAUGAUUAACAUGAGGAUCACCCAUGUGGUGUUGUGAGUAAGGAGAGUGAUCAGAAGGGCAUUUUUUUU [JMF's solution 96] (Eterna round: R96, puzzle: Same State NG 2) | 599 | 452 | 445 |  |  | 
2 | CCAGCAUCACGAGGAUAUGGAGGUUCCCGAAAGACAUGAGGAUCACCCAUGUAUGUACGCCGCCUUCAGAAGGUGUAUAAGCGA [Eternabot solution 31] (Eterna round: R96, puzzle: Same State NG 2) | 65.7 | 38.2 | 58.7 |  |  | 
3 | AGCCGAGACUGAGGAUAUUUGAAUCUACAUGAGGAUCACCCAUGUAGCAACACGUGGUAGUGAUCGAAGAAGGCAGCUCGGCGC [MOD of Omei's SS(NG)2 Cv2] (Eterna round: R96, puzzle: Same State NG 2) | 22.6 | 45.7 | 57 |  |  | 
4 | UUAUUAUUUAUAGGAUAUUGAUGUUUGCUAGUACAAGAAGGAUAAACAUGAGGAUCACCCAUGUAGUUUAAGGUUAGUUUGUUU [JR_SSNG1_Sub078] (Eterna round: R96, puzzle: Same State NG 1) |  | 25.2 |  |  |  | 
5 | GAGUGGUAGAGAGGAUAUGCAUUGUUAUUCACUGUAGAAGGUUUUAACAUGAGGAUCACCCAUGUAGGACUAUUCCUGUGUUUU [Parity 62 - Jieux - Same State NG 1] (Eterna round: R96, puzzle: Same State NG 1) | 16.3 | 13.3 | 18.4 |  |  | 
6 | CGUCCGGCCUGAGCUGGACGGAUGCAUGUACAUGAGGAUCACCCAUGUUCAUGUGCAGGCUUUUUGCUCGUCUUGUG [salish99_mir208a_modof_jandersonlee_002] (puzzle: Sensor for hsa-mir-208a) |  |  |  | 20.1 | 9.62 | 18.1
7 | GAGGGACAGACCAACAUGAGGAUCACCCAUGUCCUCGCAGGUCAGGAUAUCCCGCCAACAGGCGAGGAGAAGGGACGGUGAACC (Eterna round: R96, puzzle: Same State NG 3) | 610 | 672 | 713 |  |  | 
8 | CUCACUUGGGUAGGAUAUCUAGGAUAUGGGAAAGACUAAGUCUGUAGGUCACCUAACCCAGAUGGAGAGAAGGACCCAACACUC [pwkr ssNG2 2FMN + F9.38] (Eterna round: R96, puzzle: Same State NG 2) | 57.9 | 2.64 | 33.1 |  |  | 
9 | GGUGCAAUUAACGCCUACAUGAGGAUCACCCAUGUAUGUAGGCAGGAUAUCGUUUGCUUUGCAAACGAGAAGGGCUGUAGUACC [JL SSNG3 1.14] (Eterna round: R96, puzzle: Same State NG 3) | 35.6 | 89.3 | 84.5 |  |  | 
10 | UAGUGCAUUAGAGGAUAUUCUUACGGAAACGGUAAGACAUGAGGAUCACCCAUGUUGUCACAUGGGAAGAAGGCUGAUGUGCUA [Omei SS(NG)2 Bv5] (Eterna round: R96, puzzle: Same State NG 2) | 82.6 | 104 | 510 |  |  | 
11 | UUUCUACAUGAGGAUCACCCAUGUCAACAAAGUCGAGGAUAUGGGCAUAUUAUCUUAUUUCCAGAAGGCGAUUUCU [salish99_ss1_r3_092] (puzzle: Same State 1) |  |  |  |  | 101 | 
12 | CUCAAACAUGAGGAUCACCCAUGUGUUGUCGUGGGAGGAUAUCCCGGUUCGGUGGCGUCGGGAGAAGGCCUAUGUC [× ×•×ª×• ×ž×“×™× ×” × ×—×ª-17] (puzzle: Same State 1) |  |  |  |  | 54.8 | 
13 | AGGCUCAGACGAGGAUAUAUGCGAUCACAUGAGGAUCACCCAUGUCUCGAGCUUCGGCUCGAGGCAUAGAAGGCGUCUGAGCCA [SSNG2/4-A1] (Eterna round: R96, puzzle: Same State NG 2) | 16.4 | 31.2 | 38.4 |  |  | 
14 | UUAUUAUUUACAUGAGGAUCACCCAUGUUUUUAUGUCAGAGACAGGAUAUAGUAGUCUCGUUUUACUAGAAGGGUCUUUUUAUU [JR_SSNG3_Sub017] (Eterna round: R96, puzzle: Same State NG 3) | 15.2 | 18.9 | 22.1 |  |  | 
15 | AUAAGUCCGAUGCUCGUCUCUCCGUACAAACAUGAGGAUCACCCAUGUGAUCGGGAAGUAGCCCGAUCAGUAUGGCC [Erardius] (puzzle: Sensor for hsa-mir-208a) |  |  |  | 45.5 | 22.6 | 48.3
16 | UCUUGGUUUUUGCUCGUUUUUUGUGUUGAACAUGAGGAUCACCCAUGUAUUGUACGGUCCGGUUUAAUAAUGGUCCG [JMF 12] (puzzle: Sensor for hsa-mir-208a) |  |  |  | 25 | 14.7 | 26.3
17 | UGUACCUUCACAGGAUAUCAUGCGAAAAUUGCGUGAGAAGGGUGAAUACUGUGUUAAUAAAAGCACAUGAGGAUCACCCAUGUA [SameState NG1 #57] (Eterna round: R96, puzzle: Same State NG 1) | 392 | 12.7 | 43.4 |  |  | 
18 | AUUGCUAUCACAGGAUAUCAUGCGAAAAUUGCGUGAGAAGGGUGGACUCUGUCAUUCACGGAGGACAUGAGGAUCACCCAUGUC [SameState NG1 #81] (Eterna round: R96, puzzle: Same State NG 1) | 1020 | 15.5 | 32.3 |  |  | 
19 | CGGCGCUGUCGAGAGGAUAUGCGGUGAUGGACAUGAGGAUCACCCAUGUUAGCGAUAGCAUCACGGUAGAAGGCUCUACGGCUGC [Soteed Omei mod 19] (puzzle: Same State 2) |  |  |  |  | 9.83 | 
20 | UGAAUGGUGAUAGGAUAUACAUGAGGAAUCCUCGUAGAAGGAUCACGACAUGAGGAUCACCCAUGUAGCCGUCCGUAGACGGCC [salish99_SSNG1_r04_002] (Eterna round: R96, puzzle: Same State NG 1) |  | 89.6 |  |  |  | 
21 | GCGCAGCUGGGUGAGGAUAUCGGUGGUAAAACAUGAGGAUCACCCAUGUCCGAAGCUCGGACUUCCGAGAAGGCGCCCGGCUGCA [Ridigea] (puzzle: Same State 2) |  |  |  | 13 | 72.3 | 115
22 | GUGGUGAAUUAAGGAUAUCGAGUCUAGAUGUUAAACAUGAGGAUCACCCAUGUGGGUUGCGGUAUCGAGAAGGUAAUUUACGGG [salish99_SSNG2_r04_507] (Eterna round: R96, puzzle: Same State NG 2) | 25.4 | 26.1 | 47.2 |  |  | 
23 | AGAUGUUAAUCAGGAUAUGGGCACAUGAGGAUCACCCAUGUAACGUAGAUACGAUGUGGUCAAGUCUAGAAGGGAUAGCUAACA [SameState NG2 #78] (Eterna round: R96, puzzle: Same State NG 2) | 125 | 60.7 | 65.9 |  |  | 
24 | CCUUAGUACAAUUUAGAUCUACAUGAGGAUCACCCAUGUACUGAGGAUAUCAGCUCGAAUAGAGCUGAGAAGGCAGAAGUACUU [SSNG3/7-A1] (Eterna round: R96, puzzle: Same State NG 3) | 60.3 | 154 | 130 |  |  | 
